Experimental data reported in paper PMC6391317.

How the values were obtained:
[1] = target: T1, thrombin (alpha-thrombin) (human, UniProt P00734;P00734 328-363;364-622); assay: capillary electrophoresis; simulated body plasma ionic buffer (SBP); exosite II; CE: 400 nM thrombin + 100 nM fluorescein-labeled aptamer in simulated body plasma ionic buffer (SBP; composition and pH not given in the material), 37 C for 2 m
[2] = target: T1, thrombin (alpha-thrombin); assay: capillary electrophoresis; simulated body plasma ionic buffer (SBP); exosite I; CE: 400 nM thrombin + 100 nM fluorescein-labeled aptamer in simulated body plasma ionic buffer (SBP; composition and pH not given in the material), 37 C for 2 m

Binder	Kd [1] [nM]	Kd [2] [nM]
AGTCCGTGGTAGGGCAGGTTGGGGTGACT (structured_DNA) [HD22]	97.6	–
GGTTGGTGTGGTTGG (structured_DNA) [HD1]	–	258
